Assay results: patent US20250262210A1 (TRUSTEES OF COLUMBIA UNIVERSITY IN THE CITY OF NEW YORK, published 2025)

Key:
Test in all cases: IP/MS, LZTR1 R810W-FLAG, U87
SNX14 = target: T1, SNX14 (human, UniProt Q9Y5W7 1-946, limits assumed)
T1 sequence (looked up): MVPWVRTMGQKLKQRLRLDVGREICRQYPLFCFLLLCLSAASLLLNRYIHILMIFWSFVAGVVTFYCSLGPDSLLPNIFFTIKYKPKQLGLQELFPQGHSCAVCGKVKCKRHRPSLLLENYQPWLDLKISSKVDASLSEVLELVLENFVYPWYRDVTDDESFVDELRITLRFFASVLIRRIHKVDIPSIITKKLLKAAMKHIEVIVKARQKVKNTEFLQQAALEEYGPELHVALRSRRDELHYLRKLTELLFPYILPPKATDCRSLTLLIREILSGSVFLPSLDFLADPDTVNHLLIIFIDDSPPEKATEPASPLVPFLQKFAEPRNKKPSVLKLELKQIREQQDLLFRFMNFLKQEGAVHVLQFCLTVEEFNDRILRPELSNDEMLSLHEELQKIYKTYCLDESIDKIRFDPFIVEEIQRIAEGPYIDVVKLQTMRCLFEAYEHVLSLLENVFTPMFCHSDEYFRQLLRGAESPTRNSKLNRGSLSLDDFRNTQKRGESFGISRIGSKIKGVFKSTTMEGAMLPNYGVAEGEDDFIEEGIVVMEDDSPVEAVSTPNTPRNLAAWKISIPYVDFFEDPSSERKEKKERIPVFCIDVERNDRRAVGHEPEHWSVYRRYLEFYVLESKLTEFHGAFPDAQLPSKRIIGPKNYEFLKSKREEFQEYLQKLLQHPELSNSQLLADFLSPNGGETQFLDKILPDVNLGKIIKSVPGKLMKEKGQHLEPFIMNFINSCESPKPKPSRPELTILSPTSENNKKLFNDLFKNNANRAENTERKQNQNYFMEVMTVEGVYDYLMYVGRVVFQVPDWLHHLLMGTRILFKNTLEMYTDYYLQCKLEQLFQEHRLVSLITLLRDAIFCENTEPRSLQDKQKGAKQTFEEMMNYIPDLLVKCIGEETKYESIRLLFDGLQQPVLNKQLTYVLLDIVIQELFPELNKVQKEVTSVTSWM
Summary of the method: (§1)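 Read-out: spectral counts from LC-MS/MS (Orbitrap Fusion) after MaxQuant identification. Variable modifications were Met oxidation, protein N-terminal acetylation and N/Q deamidation.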

KIAA1468 = target: T2, KIAA1468 (human, UniProt Q9P260 2-1216, limits assumed)
T2 sequence (looked up): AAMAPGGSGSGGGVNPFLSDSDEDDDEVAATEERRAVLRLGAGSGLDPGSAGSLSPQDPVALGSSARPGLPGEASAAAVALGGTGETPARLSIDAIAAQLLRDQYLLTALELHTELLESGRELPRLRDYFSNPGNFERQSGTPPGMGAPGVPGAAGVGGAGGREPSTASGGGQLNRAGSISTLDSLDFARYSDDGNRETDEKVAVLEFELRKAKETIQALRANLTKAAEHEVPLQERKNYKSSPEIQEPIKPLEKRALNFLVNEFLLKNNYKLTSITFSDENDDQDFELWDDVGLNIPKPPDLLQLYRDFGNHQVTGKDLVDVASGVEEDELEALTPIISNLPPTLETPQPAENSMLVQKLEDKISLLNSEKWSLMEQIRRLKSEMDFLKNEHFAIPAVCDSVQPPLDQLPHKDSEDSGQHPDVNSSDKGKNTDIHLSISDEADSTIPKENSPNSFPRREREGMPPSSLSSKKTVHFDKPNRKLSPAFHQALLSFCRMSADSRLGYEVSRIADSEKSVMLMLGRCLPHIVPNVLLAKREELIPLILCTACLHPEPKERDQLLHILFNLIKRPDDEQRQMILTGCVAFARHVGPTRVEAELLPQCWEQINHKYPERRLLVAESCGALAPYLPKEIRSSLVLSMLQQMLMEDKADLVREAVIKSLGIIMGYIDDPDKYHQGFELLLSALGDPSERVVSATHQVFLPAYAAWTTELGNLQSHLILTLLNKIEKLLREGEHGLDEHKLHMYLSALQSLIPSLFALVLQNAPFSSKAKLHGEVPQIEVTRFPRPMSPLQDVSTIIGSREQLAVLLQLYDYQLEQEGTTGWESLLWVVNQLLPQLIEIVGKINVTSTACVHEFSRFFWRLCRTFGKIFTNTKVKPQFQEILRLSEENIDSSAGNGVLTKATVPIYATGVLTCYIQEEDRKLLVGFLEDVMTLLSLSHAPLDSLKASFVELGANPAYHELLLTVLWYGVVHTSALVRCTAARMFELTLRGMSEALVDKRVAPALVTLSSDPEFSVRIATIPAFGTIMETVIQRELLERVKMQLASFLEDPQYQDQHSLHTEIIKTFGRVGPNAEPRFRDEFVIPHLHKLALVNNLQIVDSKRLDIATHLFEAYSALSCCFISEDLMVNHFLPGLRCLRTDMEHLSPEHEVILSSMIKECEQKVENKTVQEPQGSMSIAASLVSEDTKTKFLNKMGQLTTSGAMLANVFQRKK
Summary of the method: as §1

POLR1A = POLR1A (human, UniProt O95602 1-1720)
Summary of the method: as §1

Measured: binding result

Chain of POLR1A (O95602 whole entry): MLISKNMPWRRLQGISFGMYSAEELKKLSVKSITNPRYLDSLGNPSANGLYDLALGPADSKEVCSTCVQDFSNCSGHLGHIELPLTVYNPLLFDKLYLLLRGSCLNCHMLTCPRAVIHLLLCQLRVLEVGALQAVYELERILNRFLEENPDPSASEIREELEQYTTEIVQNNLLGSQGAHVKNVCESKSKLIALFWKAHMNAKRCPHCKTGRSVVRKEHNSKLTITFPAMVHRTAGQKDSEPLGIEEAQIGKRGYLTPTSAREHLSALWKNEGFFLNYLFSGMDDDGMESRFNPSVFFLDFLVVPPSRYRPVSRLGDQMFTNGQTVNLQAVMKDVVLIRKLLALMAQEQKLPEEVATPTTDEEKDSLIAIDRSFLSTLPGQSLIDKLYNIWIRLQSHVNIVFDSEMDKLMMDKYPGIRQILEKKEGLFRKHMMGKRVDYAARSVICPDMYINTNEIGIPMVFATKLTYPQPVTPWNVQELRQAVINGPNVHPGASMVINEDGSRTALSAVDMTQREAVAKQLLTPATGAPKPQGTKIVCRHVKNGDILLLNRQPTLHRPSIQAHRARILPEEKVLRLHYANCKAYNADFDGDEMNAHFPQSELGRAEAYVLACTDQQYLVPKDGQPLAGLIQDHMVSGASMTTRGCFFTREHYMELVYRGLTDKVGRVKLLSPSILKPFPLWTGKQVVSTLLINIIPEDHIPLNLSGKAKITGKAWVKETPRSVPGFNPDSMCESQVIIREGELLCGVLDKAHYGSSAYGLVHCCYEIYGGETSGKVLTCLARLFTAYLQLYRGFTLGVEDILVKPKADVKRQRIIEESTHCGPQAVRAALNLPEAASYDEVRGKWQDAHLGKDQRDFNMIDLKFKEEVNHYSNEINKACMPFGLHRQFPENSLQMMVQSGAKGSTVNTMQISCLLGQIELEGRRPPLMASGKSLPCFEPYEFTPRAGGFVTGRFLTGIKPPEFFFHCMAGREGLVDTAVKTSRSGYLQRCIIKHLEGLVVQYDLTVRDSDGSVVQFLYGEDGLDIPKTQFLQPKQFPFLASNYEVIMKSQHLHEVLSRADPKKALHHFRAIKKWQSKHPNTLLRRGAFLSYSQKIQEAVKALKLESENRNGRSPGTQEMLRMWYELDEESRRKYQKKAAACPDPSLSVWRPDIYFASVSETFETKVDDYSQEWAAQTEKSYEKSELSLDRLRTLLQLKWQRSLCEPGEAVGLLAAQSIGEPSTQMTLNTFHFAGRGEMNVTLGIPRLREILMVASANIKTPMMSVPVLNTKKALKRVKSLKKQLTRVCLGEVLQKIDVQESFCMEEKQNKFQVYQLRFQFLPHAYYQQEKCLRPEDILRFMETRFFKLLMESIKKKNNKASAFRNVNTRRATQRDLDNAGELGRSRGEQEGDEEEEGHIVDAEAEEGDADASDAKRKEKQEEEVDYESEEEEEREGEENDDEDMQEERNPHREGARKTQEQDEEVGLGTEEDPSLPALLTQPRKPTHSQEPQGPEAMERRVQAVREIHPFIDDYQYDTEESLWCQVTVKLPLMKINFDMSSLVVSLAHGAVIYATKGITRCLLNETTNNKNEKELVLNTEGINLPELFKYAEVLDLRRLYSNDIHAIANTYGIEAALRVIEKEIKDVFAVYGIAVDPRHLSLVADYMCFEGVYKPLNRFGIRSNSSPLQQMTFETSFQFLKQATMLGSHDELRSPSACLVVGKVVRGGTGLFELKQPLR

B1: LZTR1 R810W-FLAG (other, human, UniProt Q8N653 1-840, looked up)
chain: MAGPGSTGGQIGAAALAGGARSKVAPSVDFDHSCSDSVEYLTLNFGPFETVHRWRRLPPCDEFVGARRSKHTVVAYKDAIYVFGGDNGKTMLNDLLRFDVKDCSWCRAFTTGTPPAPRYHHSAVVYGSSMFVFGGYTGDIYSNSNLKNKNDLFEYKFATGQWTEWKIEGRLPVARSAHGATVYSDKLWIFAGYDGNARLNDMWTIGLQDRELTCWEEVAQSGEIPPSCCNFPVAVCRDKMFVFSGQSGAKITNNLFQFEFKDKTWTRIPTEHLLRGSPPPPQRRYGHTMVAFDRHLYVFGGAADNTLPNELHCYDVDFQTWEVVQPSSDSEVGGAEVPERACASEEVPTLTYEERVGFKKSRDVFGLDFGTTSAKQPTQPASELPSGRLFHAAAVISDAMYIFGGTVDNNIRSGEMYRFQFSCYPKCTLHEDYGRLWESRQFCDVEFVLGEKEECVQGHVAIVTARSRWLRRKITQARERLAQKLEQEAAPVPREAPGVAAGGARPPLLHVAIREAEARPFEVLMQFLYTDKIKYPRKGHVEDVLLIMDVYKLALSFQLCRLEQLCRQYIEASVDLQNVLVVCESAARLQLSQLKEHCLNFVVKESHFNQVIMMKEFERLSSPLIVEIVRRKQQPPPRTPLDQPVDIGTSLIQDMKAYLEGAGAEFCDITLLLDGHPRPAHKAILAARSSYFEAMFRSFMPEDGQVNISIGEMVPSRQAFESMLRYIYYGEVNMPPEDSLYLFAAPYYYGFYNNRLQAYCKQNLEMNVTVQNVLQILEAADKTQALDMKRHCLHIIVHQFTKVSKLPTLWSLSQQLLLDIIDSLASHISDKQCAELGADI
notes: Stably expressed in U87 cells by lentivirus; also called LZTR1-FLAG-R810W; LZTR1 RW; not shown: FLAG tag
binds: all assays above
